The values that follow come from PMC11931385, “Structural and functional analysis of cancer-associated missense variants in the retinoblastoma protein pocket domain” (The Journal of Biological Chemistry, 2025).

Changes are numbered by the printed parent chain. In names and notes the source's numbering stands. No end group written: not given here. TMR = tetramethyl rhodamine dye

Holding throughout (experiment): fluorescence polarisation; 37 °C, after the 25 °C reading ramped over 7 min to 37 °C and 2 min incubation; unlabeled Rb^P against 1.5 nM TMR-E2F1^TD or 7.5 nM TMR-E7^LxCxE; 25 mM Tris pH 8.0, 200 mM NaCl, 1 mM DTT, 0.1% Tween-20; apparent Kd
Conditions in all cases: both partners purified
A general note: Polarisation of emitted light reports the rotation of a fluorescent probe.

One assay concerns the target T1, Rb^P S534R (human, UniProt P06400 380-788, S534R).
T1 construct: also called variant 23
T1 sequence (looked up): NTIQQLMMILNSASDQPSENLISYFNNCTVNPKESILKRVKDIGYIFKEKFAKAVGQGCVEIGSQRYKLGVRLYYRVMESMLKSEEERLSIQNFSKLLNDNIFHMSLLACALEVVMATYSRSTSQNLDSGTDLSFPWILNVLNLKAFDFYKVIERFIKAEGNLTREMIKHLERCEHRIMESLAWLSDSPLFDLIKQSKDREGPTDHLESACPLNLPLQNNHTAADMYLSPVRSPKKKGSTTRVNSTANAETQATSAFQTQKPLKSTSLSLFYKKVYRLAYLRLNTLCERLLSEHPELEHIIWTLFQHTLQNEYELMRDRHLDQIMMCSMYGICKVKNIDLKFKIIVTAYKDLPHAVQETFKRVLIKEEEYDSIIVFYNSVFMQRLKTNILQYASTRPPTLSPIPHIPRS

In the next assay the target is T2, Rb^P A490S (human, UniProt P06400 380-788, A490S).
T2 construct: also called variant 15
T2 sequence (looked up): T1 sequence (looked up) with A111S, R155S

The next assay concerns the target T3, Rb^P D584Y (human, UniProt P06400 380-788, D584Y).
T3 construct: also called variant 32
T3 sequence (looked up): T1 sequence (looked up) with R155S, D205Y

Another assay addresses T4, Rb^P E554K (human, UniProt P06400 380-788, E554K).
T4 construct: also called variant 28
T4 sequence (looked up): T1 sequence (looked up) with R155S, E175K

The next assay has as its target T5, Rb^P A525G (human, UniProt P06400 380-788, A525G).
T5 construct: also called variant 20
T5 sequence (looked up): T1 sequence (looked up) with A146G, R155S

B1: TMR-E2F1^TD, peptide of the E2F1 transactivation domain (peptide)
peptide: {TMR}-GEGIRDLFDCDFGDLTPLD
notes: also called E2F^TD; source: synthetic peptide, bought: GenScript
Regarding B1, the Kd with Rb^P S534R is 18.1 µM; with Rb^P A490S, 29 nM; with Rb^P D584Y, 51 nM; in the assay with Rb^P E554K it was 3270 nM; with Rb^P A525G, 65 nM.

B2: TMR-E7^LxCxE, LxCxE peptide of the E7 oncoprotein from HPV (peptide)
peptide: DLYCYEQLN
modifications: also: TMR label, position not given here
notes: source: synthetic peptide, bought: GenScript
For B2, the Kd in the assay with Rb^P S534R stood at 0.011 µM; with Rb^P A490S, 15 nM; with Rb^P D584Y it was 20 nM; in the assay with Rb^P E554K, 48 nM; with Rb^P A525G, 52 nM.
